These results are taken from paper PMC9181621.

Usually stoichiometry N stands for a count of units in the complex or per binding partner.

The target in this assay is human α2-macroglobulin tetramer, (hα2M)4 (human) (UniProt P01023). The assay is described as follows: cryo-EM structure. The following applies: scale: trypsin molecule per disulfide-linked hα2M dimer.
Sequence of UniProt P01023 (P01023 24-1474): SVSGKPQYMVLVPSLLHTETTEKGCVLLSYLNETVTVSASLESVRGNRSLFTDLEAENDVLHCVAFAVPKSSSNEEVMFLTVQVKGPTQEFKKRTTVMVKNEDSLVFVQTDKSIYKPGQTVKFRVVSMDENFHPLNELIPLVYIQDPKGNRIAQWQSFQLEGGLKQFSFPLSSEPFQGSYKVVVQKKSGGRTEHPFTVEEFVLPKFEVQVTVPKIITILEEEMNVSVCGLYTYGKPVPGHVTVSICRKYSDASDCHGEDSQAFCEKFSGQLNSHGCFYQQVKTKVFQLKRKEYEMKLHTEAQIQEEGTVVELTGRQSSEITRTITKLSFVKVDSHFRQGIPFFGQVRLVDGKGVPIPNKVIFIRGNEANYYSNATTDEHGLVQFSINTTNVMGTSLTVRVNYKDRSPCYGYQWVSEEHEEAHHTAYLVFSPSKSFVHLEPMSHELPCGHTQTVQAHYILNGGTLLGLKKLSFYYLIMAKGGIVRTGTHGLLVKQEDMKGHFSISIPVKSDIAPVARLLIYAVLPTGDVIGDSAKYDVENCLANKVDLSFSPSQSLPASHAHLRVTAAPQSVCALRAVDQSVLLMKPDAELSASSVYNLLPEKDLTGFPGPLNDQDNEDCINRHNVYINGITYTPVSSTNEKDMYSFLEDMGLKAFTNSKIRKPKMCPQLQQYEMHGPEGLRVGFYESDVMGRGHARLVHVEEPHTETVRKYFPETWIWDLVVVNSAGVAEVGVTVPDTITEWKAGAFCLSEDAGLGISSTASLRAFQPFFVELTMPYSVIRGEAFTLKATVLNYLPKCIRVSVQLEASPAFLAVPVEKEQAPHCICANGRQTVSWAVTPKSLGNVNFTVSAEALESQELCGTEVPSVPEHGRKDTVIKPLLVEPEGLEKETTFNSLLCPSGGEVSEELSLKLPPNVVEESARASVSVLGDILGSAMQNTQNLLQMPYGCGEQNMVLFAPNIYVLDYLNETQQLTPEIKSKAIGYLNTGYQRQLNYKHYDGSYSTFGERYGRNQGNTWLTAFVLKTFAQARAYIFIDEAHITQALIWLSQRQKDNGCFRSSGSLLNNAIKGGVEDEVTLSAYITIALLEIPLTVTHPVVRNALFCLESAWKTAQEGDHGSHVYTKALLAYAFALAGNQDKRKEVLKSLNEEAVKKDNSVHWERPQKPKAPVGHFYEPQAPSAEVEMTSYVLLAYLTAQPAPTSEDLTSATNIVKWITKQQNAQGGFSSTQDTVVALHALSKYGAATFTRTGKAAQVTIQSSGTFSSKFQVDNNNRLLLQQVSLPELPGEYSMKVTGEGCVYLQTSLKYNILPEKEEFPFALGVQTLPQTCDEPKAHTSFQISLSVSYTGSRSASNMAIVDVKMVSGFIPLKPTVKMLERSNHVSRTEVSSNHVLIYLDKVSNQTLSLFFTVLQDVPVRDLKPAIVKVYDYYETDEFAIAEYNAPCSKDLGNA

The substance bovine trypsin (enzyme) had a stoichiometry N of 1.
